Laboratory results: paper PMC6265470, “Structural, functional and biological insights into the role of Mycobacterium tuberculosis VapBC11 toxin–antitoxin system: targeting a tRNase to tackle mycobacterial adaptation” (Nucleic Acids Research, 2018)
Values joined by “and” are separate entries in the source; they are usually repeats but may differ in a detail not shown here. Equal values may be shown once.

B1: VapB11 (shorter form, VapB11^6-72), (6x-His)-VapB11 (domain or fragment)
chain: MSRTNIDIDDELAAEVMRRFGLTTKRAAVDLALRRLVGSPLSREFLLGLEGVGWEGDLDDLRSDRPD
notes: Homodimer by AUC; also called antitoxin VapB11
B2: VapC11 toxin (purified alone) (enzyme)
chain: ILIDTSAWVEYFRATGSIAAVEVRRLLSEEAARIAMCEPIAMEILSGALDDNTHTTLERLVNGLPSLNVDDAIDFRAAAGIYRAARRAGETVRSINDCLIAALAIRHGARIVHRDADFDVIARITNLQAASFR
notes: VapC11 toxin (PIN domain ribonuclease) of the VapBC11 toxin-antitoxin system, Mycobacterium tuberculosis; 134 amino acids as printed; also called wild-type protein

What was measured:
[1] = target: the molecule itself; experiment: […] (pH 8.0), 150 mM NaCl, […]
[2] = target: B2; experiment: SPR; Biacore 3000; VapC11 immobilised on a CM5 chip (up to 750 RU); five concentrations of VapB11 injected; 10 mM HEPES (pH 7.5), 150 mM NaCl, 25°C, 20 μl/min; 1:1 Langmuir model with drifting baseline; conditions: both partners purified
AUC = target: the molecule itself; experiment: AUC

B1
stoichiometry N [1]: 2
Kd [2]: ~0.6 nM
koff [2]: 0.000133 s⁻¹
kon [2]: 1.15e+06 M⁻¹ s⁻¹

B2
stoichiometry N (AUC): 2 and 4
